Here are results for one substance from US20110183922A1.

The target of this assay is rat AChEt subunit (rat) (UniProt P37136). The assay can be described thus: cell-based or functional assay.
rat AChEt subunit (rat), sequence (P37136 32-614 limits assumed): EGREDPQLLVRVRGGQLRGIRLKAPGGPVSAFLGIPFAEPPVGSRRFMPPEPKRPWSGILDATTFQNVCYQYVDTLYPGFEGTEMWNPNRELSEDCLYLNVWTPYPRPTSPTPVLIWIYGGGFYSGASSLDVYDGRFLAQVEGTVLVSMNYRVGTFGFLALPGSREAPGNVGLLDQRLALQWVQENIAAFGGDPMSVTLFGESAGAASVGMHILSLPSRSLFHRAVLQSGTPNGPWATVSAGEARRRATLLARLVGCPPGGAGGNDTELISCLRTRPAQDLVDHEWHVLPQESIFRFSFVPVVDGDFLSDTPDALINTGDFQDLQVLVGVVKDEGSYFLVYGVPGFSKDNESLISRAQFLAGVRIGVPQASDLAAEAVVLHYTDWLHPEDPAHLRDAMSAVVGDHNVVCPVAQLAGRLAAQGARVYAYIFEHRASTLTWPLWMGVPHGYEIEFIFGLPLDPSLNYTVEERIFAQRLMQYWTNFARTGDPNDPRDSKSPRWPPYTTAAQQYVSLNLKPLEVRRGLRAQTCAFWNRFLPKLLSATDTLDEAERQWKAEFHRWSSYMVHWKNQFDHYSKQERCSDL

In turn, “ColQ PRAD-GPI: PRAD encoding N-terminal domain of ColQ (Qn) linked to the C-terminal domain of the GPI-anchored AChE form” came in with a cell-associated AChE activity / tetramerization (velocity sedimentation, COS cells) of 100 % increase.
